{
  "source": "paper PMC3599193",
  "about": "“Expression of a secretory α-glucosidase II from Apis cerana indica in Pichia pastoris and its characterization” (BMC Biotechnology, 2013)",
  "key": {"[1]": {"substrate": "OC[C@H]1O[C@@](CO)(O[C@H]2O[C@H](CO)[C@@H](O)[C@H](O)[C@H]2O)[C@@H](O)[C@@H]1O", "assay": "glucose release, glucose oxidase-peroxidase, Lineweaver-Burk", "type": "biochemical, Apis cerana", "conditions": "0-20 mM substrate, sodium phosphate pH 5.5, 37°C (assay 'as above'), partially purified enzyme"}, "[2]": {"substrate": "O=[N+]([O-])c1ccc(O[C@H]2O[C@H](CO)[C@@H](O)[C@H](O)[C@H]2O)cc1", "assay": "purified protein", "conditions": "0-25 mM substrate, sodium phosphate pH 5.5, 37°C (assay 'as above'), partially purified enzyme"}},
  "data": [
    {"protein": "rAciHBGase II-(His)6 (Apis cerana indica) (protein, full-length cDNA (1,740 bp, 579 residues) in pPICZalphaA (EcoRI/KpnI), secreted from Pichia pastoris GS115, C-terminal His6 kept, partially purified by HisTrap, ~73 kDa) FRATITVPCLLLVASLVNSVDVNWYKNALVYQIYPRSFQDSNGDGIGDLNGITARIDHIADIGAQALWLSPIYKSPQVDFGYDISNFTDVDPDYGTLADFDRLVRRAKTLGLKVILDFVPNHSSHEHPWFKKSVQRIKPYDEYYVWRDARIVNGTRQPPNNWLSVFWGSAWEWNDVRQQYYLHQFAAGQPDLNYRSAALDQEMKNVLTFWMDRGVDGFRIDAINHMFEDKRLLDEPSANRTDLSKDDYESLVHVYTRDQNETYDVSRSWRNLMDEHSNRTNSDPRMILTEAYTEFNLTVKYYKSGSTVPFNFMFITDLNNQSTASDFKQLIDRWVGNVPNGSVTNWVSGNHDNHRVASRFGRQRADEILMLTLTLPGIGVVYNGDEIGMEDRPFTYAETVDPAGCNAGPAKYYLKSRDPERTPYQWDNSTSAGFSDRNKTWLPVNDNSRSLNLAAQKKEYYSHYVAFKSMSYLKKQPVIANGSLEVDVIDGKVLSVKRKLGNDTVIVMVNFSKNPVTINMSTLHPPADLVVYANNVIGSGLSHGNWIYPTSMTIPGSNSAIFTNYKLYWRYWQGVDGL", "values": [
      {"measurement": "Km", "setting": "[1]", "result": "15.3 ± 0.87", "unit": "mM"},
      {"measurement": "kcat", "setting": "[1]", "result": "845.0 ± 0.00", "unit": "s⁻¹"},
      {"measurement": "Km", "setting": "[2]", "result": "4.20 ± 0.18", "unit": "mM"},
      {"measurement": "kcat", "setting": "[2]", "result": "1.89 ± 0.11", "unit": "s⁻¹"}
    ]}
  ]
}
